T1: human ALPI (intestinal alkaline phosphatase) expressed on the surface of CHO cells (human, UniProt P09923 20-503)
T1 sequence (looked up): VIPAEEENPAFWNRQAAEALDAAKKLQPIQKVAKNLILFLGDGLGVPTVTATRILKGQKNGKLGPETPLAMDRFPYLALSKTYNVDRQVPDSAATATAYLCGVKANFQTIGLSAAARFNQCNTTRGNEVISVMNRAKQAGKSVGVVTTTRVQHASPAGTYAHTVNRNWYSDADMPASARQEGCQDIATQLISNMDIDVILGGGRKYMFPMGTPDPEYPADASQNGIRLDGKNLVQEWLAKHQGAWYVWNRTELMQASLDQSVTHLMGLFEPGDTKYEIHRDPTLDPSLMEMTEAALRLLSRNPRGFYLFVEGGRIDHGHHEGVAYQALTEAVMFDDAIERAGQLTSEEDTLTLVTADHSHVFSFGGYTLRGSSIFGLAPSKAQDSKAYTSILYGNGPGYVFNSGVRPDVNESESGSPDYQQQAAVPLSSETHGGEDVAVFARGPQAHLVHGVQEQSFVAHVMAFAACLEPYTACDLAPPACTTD

T2: human ALPL (tissue non-specific alkaline phosphatase) expressed on the surface of CHO cells (human, UniProt P05186 18-501)
T2 sequence (looked up): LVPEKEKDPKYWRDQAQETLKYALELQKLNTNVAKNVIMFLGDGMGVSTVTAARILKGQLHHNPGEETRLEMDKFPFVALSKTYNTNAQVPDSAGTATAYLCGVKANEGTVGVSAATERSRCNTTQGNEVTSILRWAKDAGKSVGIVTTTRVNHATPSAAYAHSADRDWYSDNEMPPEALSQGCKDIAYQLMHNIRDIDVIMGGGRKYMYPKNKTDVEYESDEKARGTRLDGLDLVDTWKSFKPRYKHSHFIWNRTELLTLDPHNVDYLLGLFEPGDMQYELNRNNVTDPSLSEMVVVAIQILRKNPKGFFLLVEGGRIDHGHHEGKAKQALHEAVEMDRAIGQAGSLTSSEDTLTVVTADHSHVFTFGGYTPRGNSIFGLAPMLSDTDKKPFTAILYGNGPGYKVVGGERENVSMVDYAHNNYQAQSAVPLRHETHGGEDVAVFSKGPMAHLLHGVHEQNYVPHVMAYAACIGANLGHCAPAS


Legend:
[1] = biological target: T3, human ALPP (alkaline phosphatase, placental type) expressed on the surface of CHO cells (human, UniProt P05187 23-506); assay: cell-based or functional assay
T3 sequence (P05187 23-506 limits assumed): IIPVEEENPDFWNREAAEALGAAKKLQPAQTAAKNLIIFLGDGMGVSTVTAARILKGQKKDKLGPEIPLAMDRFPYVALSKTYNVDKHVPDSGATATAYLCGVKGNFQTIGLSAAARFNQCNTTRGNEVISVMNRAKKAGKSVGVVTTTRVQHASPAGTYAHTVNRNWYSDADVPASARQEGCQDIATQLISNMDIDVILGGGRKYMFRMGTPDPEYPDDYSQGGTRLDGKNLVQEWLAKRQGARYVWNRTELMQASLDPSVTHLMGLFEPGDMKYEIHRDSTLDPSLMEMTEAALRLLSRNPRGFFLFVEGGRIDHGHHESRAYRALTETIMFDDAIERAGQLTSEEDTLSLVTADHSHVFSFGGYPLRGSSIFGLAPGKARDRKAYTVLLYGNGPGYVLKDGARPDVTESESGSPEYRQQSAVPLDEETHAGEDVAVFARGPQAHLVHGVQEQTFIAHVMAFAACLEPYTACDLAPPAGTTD

[2] = biological target: T4, human ALPPL2 (alkaline phosphatase, germ cell type) expressed on the surface of CHO cells (human, UniProt P10696 20-503); assay: cell-based or functional assay
T4 sequence (P10696 20-503): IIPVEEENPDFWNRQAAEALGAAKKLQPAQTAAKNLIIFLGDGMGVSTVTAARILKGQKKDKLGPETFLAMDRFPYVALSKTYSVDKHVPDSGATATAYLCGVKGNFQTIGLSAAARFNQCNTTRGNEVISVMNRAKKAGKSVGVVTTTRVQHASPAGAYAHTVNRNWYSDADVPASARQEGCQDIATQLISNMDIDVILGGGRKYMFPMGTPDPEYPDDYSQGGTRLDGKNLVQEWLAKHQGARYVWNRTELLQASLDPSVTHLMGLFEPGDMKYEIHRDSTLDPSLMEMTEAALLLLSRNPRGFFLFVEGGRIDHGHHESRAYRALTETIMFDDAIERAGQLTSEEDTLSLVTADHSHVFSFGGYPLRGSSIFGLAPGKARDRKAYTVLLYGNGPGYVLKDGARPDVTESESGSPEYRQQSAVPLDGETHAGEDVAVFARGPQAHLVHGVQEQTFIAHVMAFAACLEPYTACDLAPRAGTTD

[3] = biological target: T1, human ALPI (intestinal alkaline …); assay: cell-based or functional assay
[4] = biological target: T2, human ALPL (tissue non-specific …); assay: cell-based or functional assay
[5] = biological target: T1, human ALPI (intestinal alkaline …); assay: flow cytometry, CHO-ALPI cells
[6] = biological target: T2, human ALPL (tissue non-specific …); assay: flow cytometry, CHO-ALPL cells
[7] = biological target: T3, human ALPP (alkaline phosphatase, …); assay: flow cytometry on CHO-ALPP cells, apparent KD (KDapp)
Summary of the method: (§1)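 Cell-surface binding to CHO cells stably transfected with human ALPP, ALPPL2, ALPI or ALPL; cells detached with 0.1% EDTA/PBS, incubated with biparatopic VHH-hFc drug conjugates over a concentration range for 1 hr on ice. Bound agent detected with FITC anti-human Ab (30 min, ice, dark) by flow cytometry; KDapp derived from binding.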

[8] = biological target: T4, human ALPPL2 (alkaline phosphatase, …); assay: flow cytometry on CHO-ALPPL2 cells, apparent KD (KDapp)
Summary of the method: as §1

Kd [7] [nM]	Kd [8] [nM]	Binder	IC50 at 96 h, cell-killing of CHO-ALPP cells [1] [nM]	IC50 at 96 h, cell-killing of CHO-ALPPL2 cells [2] [nM]	IC50 at 96 h, cell-killing of CHO-ALPI cells [3] [nM]	IC50 at 96 h, cell-killing of CHO-ALPL cells [4] [nM]	binding result [5]	binding result [6]
9.4	5.5	D10 E06-hFc (S239/442C T366Y/Y407T), [G4S]1 linker, MC-vc-PAB-MMAE conjugate, #677 (Fc fusion, DAR 4, MC-vc-PAB-MMAE on Cys of S239C and S442C (EU numbering), Biparatopic knob-into-hole VHH-hFc heterodimer, DAR 4; also called D10-E06-hFc-vcPAB-MMAE; D10-E06 hFc-vc-MMAE) chain 1: QVQLVESGGGLVQPGGSLRLSCAASGSIFSVNTMGWYRQAPGKQRDLVAVATSGGTIHYADSVKGRFTISRDNAKNTVYLQMNSLKPEDTAVYYCNLVVPYGMIAGDHDYWGQGTKVTVSSGGGGSEPKSSDKTHTCPPCPAPELLGGPCVFLFPPKPKDTLMISRTPEVTCVVVDVSHEDPEVKFNWYVDGVEVHNAKTKPREEQYNSTYRVVSVLTVLHQDWLNGKEYKCKVSNKALPAPIEKTISKAKGQPREPQVYTLPPSRDELTKNQVSLYCLVKGFYPSDIAVEWESNGQPENNYKTTPPVLDSDGSFFLYSKLTVDKSRWQQGNVFSCSVMHEALHNHYTQKSLCLSPGK chain 2: QVHLVESGGGLVQAGGSLRLSCAASRRSFSEYAMGWFRQAPGKEREFVAAIGWSGVIEYADSVKGRFTISRDNAKDTVYLQMNSLKPEDTAVYYCAAGLGIRVVSQTPAYWGQGTQVTVSSGGGGSEPKSSDKTHTCPPCPAPELLGGPCVFLFPPKPKDTLMISRTPEVTCVVVDVSHEDPEVKFNWYVDGVEVHNAKTKPREEQYNSTYRVVSVLTVLHQDWLNGKEYKCKVSNKALPAPIEKTISKAKGQPREPQVYTLPPSRDELTKNQVSLTCLVKGFYPSDIAVEWESNGQPENNYKTTPPVLDSDGSFFLTSKLTVDKSRWQQGNVFSCSVMHEALHNHYTQKSLCLSPGK	3.3	21.1	> 1000	> 1000	no binding (tested: 350 nM (highest concentration))	no binding (tested: 350 nM (highest concentration))
8.3	5.9	D10 E06-hFc (S239/442C T366Y/Y407T), [G4S]3 linker, MC-vc-PAB-MMAE conjugate, #634 (Fc fusion, DAR 4, MC-vc-PAB-MMAE on Cys of S239C and S442C (EU numbering), Biparatopic knob-into-hole VHH-hFc heterodimer, DAR 4; also called D10-E06 hFc-vcPAB-MMAE; D10-E06 hFc-vc-MMAE) chain 1: QVQLVESGGGLVQPGGSLRLSCAASGSIFSVNTMGWYRQAPGKQRDLVAVATSGGTIHYADSVKGRFTISRDNAKNTVYLQMNSLKPEDTAVYYCNLVVPYGMIAGDHDYWGQGTKVTVSSGGGGSGGGGSGGGGSEPKSSDKTHTCPPCPAPELLGGPCVFLFPPKPKDTLMISRTPEVTCVVVDVSHEDPEVKFNWYVDGVEVHNAKTKPREEQYNSTYRVVSVLTVLHQDWLNGKEYKCKVSNKALPAPIEKTISKAKGQPREPQVYTLPPSRDELTKNQVSLYCLVKGFYPSDIAVEWESNGQPENNYKTTPPVLDSDGSFFLYSKLTVDKSRWQQGNVFSCSVMHEALHNHYTQKSLCLSPGK chain 2: QVHLVESGGGLVQAGGSLRLSCAASRRSFSEYAMGWFRQAPGKEREFVAAIGWSGVIEYADSVKGRFTISRDNAKDTVYLQMNSLKPEDTAVYYCAAGLGIRVVSQTPAYWGQGTQVTVSSGGGGSGGGGSGGGGSEPKSSDKTHTCPPCPAPELLGGPCVFLFPPKPKDTLMISRTPEVTCVVVDVSHEDPEVKFNWYVDGVEVHNAKTKPREEQYNSTYRVVSVLTVLHQDWLNGKEYKCKVSNKALPAPIEKTISKAKGQPREPQVYTLPPSRDELTKNQVSLTCLVKGFYPSDIAVEWESNGQPENNYKTTPPVLDSDGSFFLTSKLTVDKSRWQQGNVFSCSVMHEALHNHYTQKSLCLSPGK	9.2	9.1	> 1000	> 1000	no binding (tested: 350 nM (highest concentration))	no binding (tested: 350 nM (highest concentration))

From patent US20260216242A1 (ALMAC DISCOVERY, published 2026)
